The source of these data is patent US6312887, “Method of using a crystal of the N-terminal domain of a signal transducer and activator of transcription” (The Rockefeller University).

This data set deals with STAT-1alpha wild type (Tyr-phosphorylated) (Homo sapiens, UniProt P42224 P42224:2-750). The data set is described as follows: EMSA. Particulars: tags: in vitro Tyr-phosphorylated with EGF-receptor kinase; chain copies: 4 on tandem site (two dimers), stated; 2 on single site; label: radiolabel. Here is the method: Both protein preparations (Tyr-phosphorylated wild type STAT-1α and W37A mutant) were titrated in gel shift experiments with an oligonucleotide containing a single M67 site (5'-GCCGAT TTCCCGTAAATCAT-3', SEQ ID NO:5) [Wagner et al., *EMBO J.* 9:4477 (1990)] to assure similar loading of active protein. A 12.5 μl reaction volume contained DNA binding buffer (20 mM Hepes/HCl, 4% Ficoll, 40 mM KCl, 10 mM MgCl_2, 10 mM CaCl_2, 1 mM DTT) radiolabelled DNA at a final concentration of 1×10^-10 M unless stated otherwise, 50 ng dIdC, 0.2 mg/ml BSA (Boebringer Mannheim), and the indicated amount of purified phosphorylated STAT protein. The reaction volume was mixed and then incubated at room temperature. The time necessary to reach equilibrium was assessed by EMSA [(Stone et al., in Jost, J.P. & Saluz, H.P. (eds) *A Laboratory Guide to In Vitro Studies of Protein-DNA Interactions* BioMethods, vol.5:163–195 (1991)]. For all DNA fragments tested, equilibrium turned out to be fully established at the earliest timepoint that can be determined by this technique (30 sec). Therefore incubation periods of 5–15 minutes were chosen. Reaction products were loaded onto a 4% polyacrylamide gel (1.5 mm thick) containing 0.25×Tris-borate-EDTA which had been pre-run at 20V/cm for 2 hours at 4° C. Electrophoresis was continued for 60 minutes at 4° C. […]
Chain of STAT-1alpha wild type (Tyr-phosphorylated) (P42224 2-750, one chain of several): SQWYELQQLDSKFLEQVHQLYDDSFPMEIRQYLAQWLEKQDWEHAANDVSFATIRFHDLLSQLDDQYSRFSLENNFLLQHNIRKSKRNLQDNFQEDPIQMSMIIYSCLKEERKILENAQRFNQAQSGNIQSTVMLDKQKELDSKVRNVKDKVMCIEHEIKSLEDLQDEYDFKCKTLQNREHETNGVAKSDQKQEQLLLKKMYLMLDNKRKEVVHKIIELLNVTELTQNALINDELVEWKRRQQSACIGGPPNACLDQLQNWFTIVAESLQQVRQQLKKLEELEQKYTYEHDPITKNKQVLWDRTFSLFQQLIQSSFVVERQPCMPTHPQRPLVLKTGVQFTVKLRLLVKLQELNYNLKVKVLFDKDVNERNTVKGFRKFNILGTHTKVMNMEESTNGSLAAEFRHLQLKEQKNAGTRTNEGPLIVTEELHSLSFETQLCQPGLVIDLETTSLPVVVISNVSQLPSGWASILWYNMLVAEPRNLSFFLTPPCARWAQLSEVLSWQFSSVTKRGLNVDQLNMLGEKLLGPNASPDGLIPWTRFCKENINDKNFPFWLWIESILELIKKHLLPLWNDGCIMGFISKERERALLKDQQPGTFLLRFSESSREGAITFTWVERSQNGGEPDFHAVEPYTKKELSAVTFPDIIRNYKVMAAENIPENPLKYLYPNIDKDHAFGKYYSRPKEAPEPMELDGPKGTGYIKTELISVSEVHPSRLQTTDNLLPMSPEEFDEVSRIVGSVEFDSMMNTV

B1: tandem c-fos STAT recognition element, 10 bp spacing (dsDNA)
DNA 1: GCCAGTCAGTTCCCGTCAATGCATCAGGTTCCCGTCAATGCAT
DNA 2: ATGCATTGACGGGAACCTGATGCATTGACGGGAACTGACTGGC
With B1, the binding result is given as “binds”.
